Compound in the data set: NC(CCC(=O)NC1CSSCC(NC(=O)CCC(N)C(=O)O)C(=O)NCC(=O)NCCCNCCCCNC(=O)CNC1=O)C(=O)O
Briefly: Inhibitory activity against recombinant Trypanothione reductase from Trypanosoma cruzi.

B1: Trypanothione reductase (Trypanosoma cruzi), P28593 (protein)
chain: MMSKIFDLVVIGAGSGGLEAAWNAATLYKKRVAVIDVQMVHGPPFFSALGGTCVNVGCVPKKLMVTGAQYMEHLRESAGFGWEFDRTTLRAEWKKLIAVKDEAVLNINKSYEEMFRDTEGLEFFLGWGSLESKNVVNVRESADPASAVKERLETENILLASGSWPHMPNIPGIEHCISSNEAFYLPEPPRRVLTVGGGFISVEFAGIFNAYKPKDGQVTLCYRGEMILRGFDHTLREELTKQLTANGIQILTKENPAKVELNADGSKSVTFESGKKMDFDLVMMAIGRSPRTKDLQLQNAGVMIKNGGVQVDEYSRTNVSNIYAIGDVTNRVMLTPVAINEAAALVDTVFGTNPRKTDHTRVASAVFSIPPIGTCGLIEEVASKRYEVVAVYLSSFTPLMHNISGSKYKTFVAKIITNHSDGTVLGVHLLGDNAPEIIQGVGICLKLNAKISDFYNTIGVHPTSAEELCSMRTPSYYYVKGEKMEKPSEASL
In the case of B1, the Km (as a rule, the concentration of substrate that gives half-maximal velocity) amounted to 50 µM.
